Assay: label from the status in PepcDB records

| Sequence | protein production |
| --- | --- |
| MYLRRFYDEGLAHASYLVGCQETGEACVIDPARDVEPYLLTAKREGLRIVAALETHIHADFVSGAREMADRAGAAICVSDEGPPEWKSEYVKAYPHRLLKDGDELHFGNVRIVVMHTPGHTPEHVSYLLYDGKTSPDVPMALFSGDFVFVGDVGRPDLLERVAGESGSSEALARQMFRSLRKFEALPDHVQVLPAHGAGSACGKALGAVPSSTVGYEKLVNWALQHKDEDAFVQALLAGQPEAPIYFARMKLVNKVGPRLLAELGAPERVDLPPERVRAWREGGVVLDVRPADAFAKRHLAGSLNIPWNKSFVTWAGWLLPADRPIHLLAADAIAPDVIRALRSIGIDDVVDWTDPAAVDRAAPDDVASYANVSPDEVRGALAQQGLWLLDVRNVDEWAGGHLPQAHHIPLSKLAAHIHDVPRDGSVCVYCRTGGRSAIAASLLRAHGVGDVRNMVGGYEAWRGKGFPVEA | not failed |
| MADLSFIEDTVAFPEKEEDEEEEEEGVEWGYEEGVEWGLVFPDANGEYQSPINLNSREARYDPSLLDVRLSPNYVVCRDCEVTNDGHTIQVILKSKSVLSGGPLPQGHEFELYEVRFHWGRENQRGSEHTVNFKAFPMELHLIHWNSTLFGSIDEAVGKPHGIAIIALFVQIGKEHVGLKAVTEILQDIQYKGKSKTIPCFNPNTLLPDPLLRDYWVYEGSLTIPPCSEGVTWILFRYPLTISQLQIEEFRRLRTHVKGAELVEGCDGILGDNFRPTQPLSDRVIRAAFQLEHHHHHH | not failed |
| MDIDASSCPELYARRAYGAEMTSQHQNTPSSEQIRRAPKVLLHDHLDGGLRPGTIVELARDAGYSGLPETDPDKLGIWFREAADSGSLERYLETFAHTCAVMQTRAALVRVAAECAEDLAADGVVYAEVRYAPEQHLEAGLSLEEVVEAVNEGFRAGERRAKEDGNRIRVGALLTAMRHAARALEIAELANRYRDAGVVGFDIAGAEAGFPPTRHLDAFEYLKRENNHFTIHAGEAFGLPSIWQALQWCGADRLGHGVRIIDDIQVREDGSVKLGRLASYVRDKRIPLELCPSSNLQTGAASSYADHPIGLLRRLHFRATVNTDNRLMSGTSMSREFEHLVDAFGYTLDDMAWFSVNAMKSAFIPFDERLAMINDVIKPGYAELKSEWLFKQTASTSSSAASEE | not failed |
| MSKLIGMLLNDKQVYVGPFLRGKKGILLAVESLKGNTFDDKQWVVDRAQKKSEREMELKVPYEQSLKEIADKFQSYNFRGSGFVAFSTQNVTISGICKDVIDESVAMPPSVGPRMPIYPLGSPGIRKSMFYG | not failed |
| PLLIFPPWINKFYIMDLRPENSMIRWLTAQGFTVFVASWVNPDQTLAAKTFEDYMVEGIYDAAQQVMTQCGVDRVNTVGYCIGGTLLSVALAHMAARGDKRINSATFFAAQQDFAEAGDLLLFTNEEWLQSIEQQMDQAGGFLPSQSMADTFNALRGNDLIWSFFVSNYLMGKEPRPFDLLFWNADQTRMPKALHLFYLRNFYKDNALTTGKLSLGGERLDLSKVKIPIYVQSSKDDHIAPYRSVYRGARAFGGPVTFTMAGSGHI | failed |
| RMPTRRWAPGTQCITKCEHTRPKPGELAFRKGDVVTILEACENKSWYRVKHHTSGQEGLLAAGALRER | not failed |
| MAEERRIDWSSLWKKEDWWAFWLGMLLFVLCLATAYGADIMGWVVKSSTWVDVSKAMGPTSKNFAYLGPIGSFVVSWLVLLILTTIGAVAMGWKGGKFAAAFTVIFILTWICWVIGHNAYIAATDPAKAGVPWSLRMTGEAGYIFALILGLIIGNFFKGFANWLKEAAKPEWFIKTAIVLLGAVVGIKAPTIPPEILYNYLFRGLCAIVEAYLIYWALVYWVARRYFGFSREWAAPLASGISICGVSAAIATGGAIRARPVVPVMVASLVIVFAVVELLFLPFLAATFLQHQPLVAGAWMGLAVKTDGAATASVKWLKL | failed |
| NNTPIGTLRIGCSSTMAQNVLARITAKMLKEYPGLSVNLVTGIPAPDLIADGLDVVIRVGALQDSSLFSRRLGSMPMVLCAAKSYLAQAGNPEKPADLAGHAWLEYSVRPDNEFVIIAPEGISTRLTPQGRFVTNDPMTL | failed |
| MNDTYQPINCDDYDNLELACQHHLMLTLELKDGEKLQAKASDLVSRKNVEYLVVEAAGETRELRLDKITSFSHPEIGTVVVSES | not failed |
| MDFHIRKATNSDAEAIQHVATTSWHHTYQDLIPSDVQDDFLKRFYNVETLHNRISATPFAVLEQADKVIGFANFIELEKGKSELAAFYLLPEVTQRGLGTELLEVGMTLFHVPLPMFVNVEKGNETAIHFYKAKGFVQVEEFTEDFYGYPLETIRFNLNHHAFEEE | not failed |
| MQDLNDIALFAAVVKHNGFSAAARDLNVPKSKLSKHVARLEEQLGVRLLERSTRKLRMTEVGRIFYEHAQGLLDGVAAAEAEIAAVRAEPTGVVRLACPIGFTPMLADILPAFHRRYPGVRLLITASNRRIDLIEERIDVALRARDQLDTDSQLIVRKFGEVRQRLAASPTLLARLGEITTDNLSQMPTLSMNEQHPNDVWRLVHATGGAIEIAHRPVVGCSDFLILERAAIEGMGIALLPDHICERAFRTGALVPVLPEWTSGNVMVHLVFPSRHGLLPATRALIDFLAENLIKALERCREVDPRPAASFEI | failed |
| MRAMSKFSRIGLAGVVGAALHAILANHLAPAVQQRLPIGRVSLTFFLALLSALAAGAVLARLAPRARVAALAVAALAFLLLAAATTWLQQCTPAQLAAIDAATPLGCNLGLYNRARAHLPPDGRPAELAPGVWFDRHGLSYACLPPEAQATHLRVALADYALALVGMSLGALLGARQRRRRDQD | failed |
| MKKVLVGLLAIMVMIIASGYTYYKMNYGGESYYVQILVNGEREETTADDHTPMVIYHYKLDSFNSKGDKKLVKFMASHNLRNQAYLELTYNKHKGVTNWNEVQEKEIPKPALKELQSLENLEHHHHHH | failed |
| MRVKICGITRLEDALLAEALGAFALGFVLAPGSRRRIAPEAARAIGEALGPFVVRVGVFRDQPPEEVLRLMEEARLQVAQLHGEEPPEWAEAVGRFYPVIKAFPLEGPARPEWADYPAQALLLDGKRPGSGEAYPRAWAKPLLATGRRVILAGGIAPENLEEVLALRPYALDLASGVEEAPGVKSAEKLRALFARLASLRMEG | not failed |
| HVETIKNTFLNPKSNKVLVVAHRGNWRSAPENSTAAIDSAIAMKVDIVEIDIQKTKDGQLILMHDNTLDRTTTGKGEIKNWTLADIKKLKLKDKDGKVTNYVVPTLEEALLTAKGKIMVNLDKAYDIFDDVYAILEKTETQNQVIMKGGQPIETVKREFGSYLDKVLYMPVIDLGNKEAEKIITDYLKELRPAAFEIIYSDPKNPLPPKIKQLLFKKSLIWYNTLWGSLAGNHDDNLALTDPEKSYGYLIEQLGARILQTDQPAYLLDYLRKKGWHN | not failed |
| MMIITTMQDAIGRTPVFKFTNKDYPIPLNSAIYAKLEHLNPGGSVKDRLGQYLIGEGFKTGKITSKTTIIEPTAGNTGIALALVAIKHHLKTIFVVPEKFSTEKQQIMRALGALVINTPTSEGISGAIKKSKELAESIPDSYLPLQFENPDNPAAYYHTLAPEIVQELGTNLTSFVAGIGSGGTFAGTARYLKERIPAIRLIGVEPEGSILNGGEPGPHEIEGIGVEFIPPFFENLDIDGFETISDEEGFSYTRKLAKKNGLLVGSSSGAAFVAALKEAQRLPEGSQVLTIFPDVADRYLSKGIYL | failed |
| PNVVKMNKPFISLCPEITRAHALTLMDWLEDEHVTRHLSDSRHVSRFIEQVIDRVQLPVLTHLFNQGGRFFMAYDRHDVPVGFVRLVKTGSDCEIVLVIGNRDNWGRKLGASAIREGMKLAFFEMRAARLIAKVHPDNERSLNAFLRCGFVLE | not failed |
| MEIILNSGGTFVILAAVVGFFMAWGIGANDVANAMGTSVGSKALTIKQAIIIAMIFEFAGAYLAGGEVTSTIRKGIIDASYFVDSPELLVYGMISALFAAATWLLIASALGWPVSTTHSIVGAIVGFAAVGVSTDAVEWGKVVGIVGSWIITPLISGIIAFIIFNSAQKLIFDTDKPLQQAKRWVPAYMFLAGFVLSLVTIKKGLKHIGLENVNLGFVNFEIKGAGGFYLAAIVAIIVAIIGKFFISRLKFDENLAKEAHYVNVEKVFAILMIVTACAMAFAHGSNDVANAIGPLAAVVSIVEHDGQIAAKSAIAWWILPLGGFGIVAGLALFGHKVIATIGQGITHLTPSRGFAAELAAASTVVIASGAGLPISTTQTLVGAVLGVGMARGIAAINLGVVRNIVVSWVITLPVGAGLSIVFFWIMQATFS | failed |
| MKIMTKTLNRTTLGLALGLASSQLLAAGFALNEQSISGMGTGFAGRSSSADDASTVFGNPAGMSRIKREQISVGAAAVIAKTDIDNGRGTFGGSNDGDMVPVVGVPMGYYVKPIDDHWAFGLGVYVPFGLVTDYEKGFAGRYWGDKSHVQIVTFQPTVSYAFNDKVSIGFGPTINRIDGELTSATLNAATPGRNDGKVKIEGDDTAIGFNAGILVQATDTTRLGLTYHSKVDYKLKGKTKIEGSGFGPFGGQKYDASLDISTPESVDFSITQQLDENWTVYAGSTWTRWSRLQDITVNNDGVPALLGGSAGPIGTITEEQNWHDTWAHAIGASYKVNKEWTLRTGFSVDQSPTNNVNRSPRIPTGDRKIISFGAGWSPTDDLTIDVAYSYLREDETKIRDSSATKGSYSADYRNTAHGLGTSVTYRF | failed |
| VINQVESASKVIDWPLALKRSANKADLAKEMLLGLVESLPETQLSIREAIDVQDIAQIKRLVHKLNGACCYTGTPNLAKITIQLETQLKMGLSTEELEPEFLEFFEHIEQVLFAVPEALKEMSEN | failed |
| LGKILQGVVVVLSGFQNPFRSELRDKALELGAKYRPDWTRDSTHLICAFANTPKYSQVLGLGGRIVRKEWVLDCH | failed |
| MASISNLIILLISFLIGWIILSIPVWLASKAVSRRSSFGNAMIVSLVSIVVYVVLSTFLHFIGAIIGIIIILLIIREIYNVGWGGAIVIGVLSLVIFVIIALILGALHLASLLI | failed |
| IIAKKTNDIQQDIILHSEFANRHGLIAGATGTGKTVTLKVMAESFSRIGVPVFLADAKGDVSSIAKAGSDNPKFDARIKSLGIESIPFAASPTIFWDLFGEQGHPIRTTISEIGPLLLAQMLNLNDTQEGVLSALFRIADDQGLLLIDFKDLKAMLSYVSENAADLKAEYGNLSPASIGAIQRNLLALGDQGGEQFFGEPSLNILDFIQTDSNGHGYINVLAADKLMNTPKLYATFLLWMLSELFEQLPEVGDLDKPKLVFFFDEAHLLFDNASPALQQKIEQVVRLIRSKGVGIYFITQNPLDLPESVLGQLGNRVQHALRAFTPKDQKAVKTAADTFRANPEFKVDQAITELAVGEALISCLDEQGTPQIVERGWVMPPYSSFSPLSPQERQAFMAQSIVAGVYENAVDRDSAYEMLQRKVNESTAQQQAQAEAKQQEANAKQQAKEQERLAREQQKAEEKAQRDREKLTQDVIGTFAKSAARTLGGPTGQKLVRGLLGSLFGKR | failed |
| MRHRGGRGFRGWWLASTILLLVAEKPSHGYELAERLAEFGIEIPGIGHMGNIYRVLADLEESGFLSTEWDTTVSPPRKIYRITPQGKLYLREILRSLEDMKRRIETLEERIKRVLQEE | not failed |
| MAGTNSERELLTEGPAIILAFPQLGENIGMVARAMANFGLSELRLVSPRDGWPSEKARSAASRADHVIDGAKLYETLEEALADLNFVYATTARDRDGFKPVRSPIVAARELRHRFKEGEKVGIIFGRERTGLTNAEVALADEIVTFPVNPAFASLNLAQAVLLMSYEWLKTGMTSEDETSFQASQQRPATKEQLHGLCEHLEEA | failed |
| MDSSSISSLLEDLKHSDALVREQATKKLWRIWFQQKGMYGLEKIDQSQKLLDAGEITEAEVMLTQLIQEQPDFAEAWNRRAFLYYSMGEYQKSLADCQMVIQINPVHFGALHGIGLCYAALGKYAKAIKAFKRALEIQPYSLVNQKLILECTFRLSLEHHHHHH | failed |

Reference: a protein production outcome set (Wang et al. 2014)
